# Patent US20170158755A1
# Experiments:
# [1] = target: His-LAMA4 as used in Example 6 (species not stated) (Homo sapiens (Human)) (UniProt Q16363); test: ForteBio BLI, LAMA-His on anti-His sensor, antibody 16.7 nM
# [2] = target: His-LAMA4 as used in Example 6 (species not stated) (Homo sapiens (Human)) (UniProt Q16363); test: ForteBio BLI, LAMA-His on anti-His sensor, antibody 8.33 nM
# [3] = target: His-LAMA4 as used in Example 6 (species not stated) (Homo sapiens (Human)) (UniProt Q16363); test: ForteBio BLI, LAMA-His on anti-His sensor, antibody 33.3 nM
# [4] = target: His-LAMA4 as used in Example 6 (species not stated) (Homo sapiens (Human)) (UniProt Q16363); test: Biacore, steady-state approximation; IgG loaded on anti-human Fc sensor, free laminin α4 as analyte
# [5] = target: His-LAMA4 as used in Example 6 (species not stated) (Homo sapiens (Human)) (UniProt Q16363); test: Biacore SPR, Fab over His-laminin-α4 captured on anti-6xHis
# [6] = target: His-LAMA4 as used in Example 6 (species not stated) (Homo sapiens (Human)) (UniProt Q16363); test: Biacore SPR, Fab, steady-state approximation
# [7] = target: His-LAMA4 as used in Example 6 (species not stated) (Homo sapiens (Human)) (UniProt Q16363); test: Biacore SPR, Fab over His-laminin-α4 captured on anti-6xHis; Fab, not IgG; kinetic fit
# [8] = target: His-LAMA4 as used in Example 6 (species not stated) (Homo sapiens (Human)) (UniProt Q16363); test: Biacore, steady-state approximation; IgG loaded on anti-human Fc sensor, free laminin α4 as analyte; IgG on anti-human Fc sensor, free laminin α4 as analyte; steady state
Kd [1] [pM],Response [1],koff [1] [s⁻¹],kon [1] [M⁻¹ s⁻¹],Kd [2] [pM],Response [2],koff [2] [s⁻¹],kon [2] [M⁻¹ s⁻¹],Kd [3] [pM],Response [3],koff [3] [s⁻¹],kon [3] [M⁻¹ s⁻¹],Kd [4] [pM],Kd [5] [pM],koff [5] [s⁻¹],Kd [6] [pM],kon [7] [M⁻¹ s⁻¹],Kd [8] [pM],kon [5] [M⁻¹ s⁻¹],Binder
53.8,1.27,0.000403,7.49e+06,12.6,1.15,0.000251,2e+07,111,1.38,0.000487,4.37e+06,,,,,,,,"chimeric 19C12 antibody (antibody, V domains shown) VH: QVQLQQSGAELVKPGASVKISCKASGYAFSTYWMNWVKQRPGEGLEWIGQIYPGDGDTNYNGKFKGKATLTADKSSSTAYMQLSSLTSEDSAVYFCARSDGYYDYWGQGTTLTVSS VL: NIVLTQSPASLAVSLGQRATISCRASESVDSYGTSFMHWYQQKPGQPPKLLICLASSLESGVPARFSGSGSRTDFTLTIDPVEADDAATYYCQQNNEDPPTFGAGTKLELKR"
,,,,15.4,1.13,0.000308,2e+07,123,1.26,0.000585,4.75e+06,,,,,,,,"humanized 19C12 antibody H2L6 (antibody, V domains shown) VH: QVQLQQSGAELVKPGASVKVSCKASGYAFSTYWMNWVRQAPGQGLEWIGQIYPGDGDTNYNGKFKGRVTITADKSTSTAYMELSSLRSEDTAVYFCARSDGYYDYWGQGTTVTVSS VL: DIVLTQSPASLAVSLGERATISCRASESVDSYGTSFMHWYQQKPGQPPKLLISLASSLESGVPARFSGSGSGTDFTLTISPVEAEDAATYYCQQNNEDPPTFGAGTKLEIKR"
62.6,1.21,0.000501,8.01e+06,13.5,1.2,0.000286,2.11e+07,113,1.38,0.000553,4.89e+06,1360,,,,,,,"humanized 19C12 antibody H3L6 (antibody, V domains shown) VH: EVQLQQSGAELVKPGASVKVSCKASGYAFSTYWMNWVRQAPGQGLEWIGQIYPGDGDTNYNGKFKGRVTITADKSTSTAYMELSSLRSEDTAVYFCARSDGYYDYWGQGTTVTVSS VL: DIVLTQSPASLAVSLGERATISCRASESVDSYGTSFMHWYQQKPGQPPKLLISLASSLESGVPARFSGSGSGTDFTLTISPVEAEDAATYYCQQNNEDPPTFGAGTKLEIKR"
,,,,,,,,,,,,,620,0.0059,980,9.5e+06,,,"Fab fragment of chimeric 19C12 (Fab, V domains shown) VH: QVQLQQSGAELVKPGASVKISCKASGYAFSTYWMNWVKQRPGEGLEWIGQIYPGDGDTNYNGKFKGKATLTADKSSSTAYMQLSSLTSEDSAVYFCARSDGYYDYWGQGTTLTVSS VL: NIVLTQSPASLAVSLGQRATISCRASESVDSYGTSFMHWYQQKPGQPPKLLICLASSLESGVPARFSGSGSRTDFTLTIDPVEADDAATYYCQQNNEDPPTFGAGTKLELKR"
50.7,1.34,0.000363,7.16e+06,12.4,1.23,0.000256,2.07e+07,115,1.54,0.000493,4.29e+06,,,,,,1860,,"humanized 19C12 antibody H2L3 (antibody, V domains shown) VH: QVQLQQSGAELVKPGASVKVSCKASGYAFSTYWMNWVRQAPGQGLEWIGQIYPGDGDTNYNGKFKGRVTITADKSTSTAYMELSSLRSEDTAVYFCARSDGYYDYWGQGTTVTVSS VL: NIVLTQSPASLAVSLGERATISCRASESVDSYGTSFMHWYQQKPGQPPKLLICLASSLESGVPARFSGSGSRTDFTLTIDPVEAEDAATYYCQQNNEDPPTFGAGTKLEIKR"
,,,,,,,,,,,,,780,0.0077,1900,,,9.8e+06,"Fab fragment of humanized 19C12 H2L3 (Fab, V domains shown) VH: QVQLQQSGAELVKPGASVKVSCKASGYAFSTYWMNWVRQAPGQGLEWIGQIYPGDGDTNYNGKFKGRVTITADKSTSTAYMELSSLRSEDTAVYFCARSDGYYDYWGQGTTVTVSS VL: NIVLTQSPASLAVSLGERATISCRASESVDSYGTSFMHWYQQKPGQPPKLLICLASSLESGVPARFSGSGSRTDFTLTIDPVEAEDAATYYCQQNNEDPPTFGAGTKLEIKR"
,,,,,,,,,,,,,,,7100,,,,"Fab fragment of humanized 19C12 H2L4 (Fab, V domains shown) VH: QVQLQQSGAELVKPGASVKVSCKASGYAFSTYWMNWVRQAPGQGLEWIGQIYPGDGDTNYNGKFKGRVTITADKSTSTAYMELSSLRSEDTAVYFCARSDGYYDYWGQGTTVTVSS VL: NIVLTQSPASLAVSLGERATISCRASESVDSYGTSFMHWYQQKPGQPPKLLISLASSLESGVPARFSGSGSGTDFTLTISPVEAEDAATYYCQQNNEDPPTFGAGTKLEIKR"
,,,,,,,,,,,,,,,7200,,,,"Fab fragment of humanized 19C12 H3L6 (Fab, V domains shown) VH: EVQLQQSGAELVKPGASVKVSCKASGYAFSTYWMNWVRQAPGQGLEWIGQIYPGDGDTNYNGKFKGRVTITADKSTSTAYMELSSLRSEDTAVYFCARSDGYYDYWGQGTTVTVSS VL: DIVLTQSPASLAVSLGERATISCRASESVDSYGTSFMHWYQQKPGQPPKLLISLASSLESGVPARFSGSGSGTDFTLTISPVEAEDAATYYCQQNNEDPPTFGAGTKLEIKR"
,,,,,,,,,,,,,,,8400,,,,"Fab fragment of humanized 19C12 H2L6 (Fab, V domains shown) VH: QVQLQQSGAELVKPGASVKVSCKASGYAFSTYWMNWVRQAPGQGLEWIGQIYPGDGDTNYNGKFKGRVTITADKSTSTAYMELSSLRSEDTAVYFCARSDGYYDYWGQGTTVTVSS VL: DIVLTQSPASLAVSLGERATISCRASESVDSYGTSFMHWYQQKPGQPPKLLISLASSLESGVPARFSGSGSGTDFTLTISPVEAEDAATYYCQQNNEDPPTFGAGTKLEIKR"
22.7,1.26,0.000227,9.98e+06,16.1,1.18,0.000268,1.67e+07,127,1.25,0.00062,4.87e+06,,,,,,,,"humanized 19C12 antibody H2L4 (antibody, V domains shown) VH: QVQLQQSGAELVKPGASVKVSCKASGYAFSTYWMNWVRQAPGQGLEWIGQIYPGDGDTNYNGKFKGRVTITADKSTSTAYMELSSLRSEDTAVYFCARSDGYYDYWGQGTTVTVSS VL: NIVLTQSPASLAVSLGERATISCRASESVDSYGTSFMHWYQQKPGQPPKLLISLASSLESGVPARFSGSGSGTDFTLTISPVEAEDAATYYCQQNNEDPPTFGAGTKLEIKR"
